Measured values from US20130287684A1 (SYMPHOGEN A S, published 2013).

target: T1, fully human HER3 ECD construct with N-terminal histidine tag (human, UniProt P21860 20-643); test: ELISA on coated His-tagged HER3 ECD constructs
T1 construct: extracellular domain; Transiently expressed in Hek 293 cells, purified on nickel NTA; also called fully human ECD construct
Description: Because the anti-HER3 antibody panel was raised in mice, antibodies are not expected to recognize epitopes present on murine HER3 due to the concept of “self tolerance”. Consequently, chimeric receptor constructs in which the human sequences coding for individual domains are replaced by murine sequences can be employed for epitope mapping purposes, since the antibodies are not expected to bind the murines sequence inserted in the human HER3 construct. Human and murine HER3 mRNA sequences (accession number M29366 and NM_{—}010153.1 respectively) were downloaded from NCBI, and extracellular domains I-IV were assigned as described by Kani et al. (J. Biol. Chem. (2005) 280:8238-8247). Chimeric human/murine domain exchange variants, in which each of the four human extracellular HER3 domains were replaced by the respective murine DNA sequence, were provided with an N-terminal histidine tag, gene synthesized and transiently expressed in Hek 293 cells. A fully human and a murine ECD construct were used as positive and negative controls, respectively. […] The next day wells were blocked with 1% BSA/PBS-T and titrations of antibodies diluted in blocking buffer were added. […]
The domain mapping of anti-HER3 antibodies is shown in FIGS. 27-32, which is a titration of anti-HER3 antibodies and negative controls against coated HER3 antigens. Bound antibody was detected with an anti-human Fc antibody. […]

T1 sequence (P21860 20-643): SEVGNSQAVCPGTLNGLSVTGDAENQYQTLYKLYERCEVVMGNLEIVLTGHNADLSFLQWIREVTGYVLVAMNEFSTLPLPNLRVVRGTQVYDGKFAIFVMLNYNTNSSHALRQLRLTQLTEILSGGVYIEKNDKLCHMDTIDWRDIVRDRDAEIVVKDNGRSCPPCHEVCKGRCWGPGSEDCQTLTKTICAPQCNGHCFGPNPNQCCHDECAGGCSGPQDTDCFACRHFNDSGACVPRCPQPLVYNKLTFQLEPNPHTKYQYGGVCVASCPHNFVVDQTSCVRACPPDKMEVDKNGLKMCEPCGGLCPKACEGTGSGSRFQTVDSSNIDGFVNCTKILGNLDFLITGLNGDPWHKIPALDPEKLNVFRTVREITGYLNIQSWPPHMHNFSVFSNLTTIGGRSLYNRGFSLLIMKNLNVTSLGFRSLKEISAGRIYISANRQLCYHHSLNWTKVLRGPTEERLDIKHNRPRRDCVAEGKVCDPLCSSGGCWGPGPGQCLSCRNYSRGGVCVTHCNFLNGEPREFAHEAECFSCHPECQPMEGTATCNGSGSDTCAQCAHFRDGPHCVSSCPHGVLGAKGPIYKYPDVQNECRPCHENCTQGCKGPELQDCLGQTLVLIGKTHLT

binding result | Binder
binds | antibody 5106 (antibody, human IgG1, kappa, V domains shown, Chimeric: murine variable regions, human kappa constant region, expressed as full-length IgG) VH: EVKLVESGGDLVKPGESLKLSCAASGFTFSSFAMSWVRQTPEKRLEWVATISDGGSHLYYPDNVKGRFTISRDNAKNNLYLQMSHLKSEDTAMYYCARGILDYWGQGTSVTVSS VL: DIVMTQATSSLSASLGDRVTISCSASQDINNYLNWYQQKPDGTIKLLIYYTSSLHSGVPSRFSGSGSGTDYSLTISNLEPEDIATYYCQQYSRIPYTFGGGTKLEIKR
binds | antibody 5101 (antibody, human IgG1, kappa, V domains shown, Chimeric: murine variable regions, human kappa constant region, expressed as full-length IgG) VH: EVKLVESGGGLVKPGGSLKLSCAASGFTFSSYGMSWVRQTPEKRLEWVATIRDGGGYTYYSDNVKGRFTISRDNAQNNLYLQMSHLKSEDTAMYYCARGILDYWGQGTSVTVSS VL: QIVLTQSPSSLSASLGDRVTISCRASQDISNYLNWFQQRPDGTVKLLIYYTSRLHSGVPSRFSGSGSGTDYSLTISNLEQEDIATYFCQQGNTLPYTFGGGTKLELKR

target: T2, human HER3 receptor (human, UniProt P21860 20-643); test: method not named there (Example 1: HER3 ELISA and confocal microscopy on MCF-7 cells)
T2 construct: also called ErbB3
T2 sequence (P21860 20-643 limits assumed): as the sequence (P21860 20-643) above
Description: Briefly, Nunc Maxisorb plates (cat.#464718) were coated with 1 μg/ml HER3 protein (R&D Systems cat.#348-RB), diluted in PBS at 4° C. overnight. Prior to blocking in 50 μl 2% milk-PBS+0.05% Tween 20 the plates were washed once with PBS-T. The plates were washed once with PBS-T and 20 μl of 2% milk-PBS-T, and 10 μl supernatants from FreeStyle293 transfectants were added and incubated for 1 hour at room temperature, after which the plates were washed once with PBS-T, 20 μl per well. Secondary antibody (HRP-Goat-anti-human kappa light chain, Serotec, cat.# STAR 100P) diluted 1:25000 in 2% milk-PBS-T was added to detect the antibodies bound to the wells and incubated for 1 hour at room temperature. The plates were washed once in PBS-T before addition of 25 μl substrate (Kem-En-Tec Diagnostics, cat.#4518) that was incubated for 5 min. 25 μl 1M sulphuric acid was added after the incubation to stop the reaction. Specific signal was detected on an ELISA reader at 450 nm. From the ELISA data 480 positive antibody clones were identified and selected for sequence analysis and validation of binding to HER3.
The 119 clones were screened for binding to the HER3-overexpressing breast cancer cell line (MCF-7) using confocal microscopy. 10,000 MCF-7 cells were seeded into each well of 384-well cell carrier plates (Perkin Elmer, cat.#6007439) and allowed to attach overnight. The media was again discarded and the cells were washed and fixed with 2% formaldehyde solution (Aldrich cat.#533998). After washing, 40 μl of antibody supernatant was transferred to each well and plates were incubated for 2 hours, after which the media in the wells was discarded and 30 μl new media containing 2 μg/ml of Alexa-488 labelled goat anti-human IgG (H+L, Invitrogen cat.# A11013), 2 μg/ml CellMask Blue (Invitrogen cat.# H34558) and 1 μM Hoechst 33342 (Invitrogen cat.# H3570) was added to each well and plates were incubated for another 30 minutes. The level of fluorescence was then measured using an OPERA high throughput confocal microscope (Perkin Elmer).

binding result | Binder
binds | antibody 5259 (antibody, human IgG1, kappa, V domains shown, Chimeric: murine variable regions, human kappa constant region, expressed as full-length IgG) VH: EVQLVESGPGLVAPSQSLSITCTVSGFSLSRYTIHWVRQPPGKGLEWLGMIWGGGSTDYNSALKSRLSISKDNSKSQLFLKMNSLQTDDTAIYYCARKGITTTGFDYWGQGTTLTVSS VL: NIVLTQSPAIMSASPGEKVTMTCSASSSVSYMFWYQQKPGSSPRLLIYDTSNLASGVPVRFSGSGSGTSYSLTISRMEAEDAATYYCQQLNSYPPTFGGGTKLEIKR
binds | antibody 4889 (antibody, human IgG1, kappa, V domains shown, Chimeric: murine variable regions, human kappa constant region, expressed as full-length IgG) VH: EVQLVESGPGLVKPSQSLSLTCSVTGYSITSAYYWNWIRQFPGNKLEWMGYVSYDGSNTYNPSLKNRISITRDTSKNQFFLKLISLTTEDTATYYCAREGDYGYSDYWGQGTTLTVSS VL: DIVMTQSTSSLSASLGDRVTVSCRASQDISNYLNWYQQKPDGTIKLLIYYTSRLHSGVPSRFSGSGSGTDYSLTISNLDQEDIATYFCQQSNTLPWTFGGGTKLEIKR
binds | antibody 5082 (antibody, human IgG1, kappa, V domains shown, Chimeric: murine variable regions, human IGHG1 and kappa constant regions; also called mAb 5082) VH: EVQLKESGPGLVKPSQSLSLTCSVTGYSITSAYYWNWIRQFPGNKVEWMGYIGYDGRNTYNPSLKNRISITRDTSKNQFFLKLNSLTTEDTATYYCSREGDYGYSDYWGQGTTLTVSS VL: DIVMTQATSSLSASLGDRVTVSCRASQDINNYLNWYQQKPDGTVKLLIYYTSRLQSGVPSRFSGSGSGIDYSLTISNLEQEDFVTYFCQQSETLPWTFGGGTKLELKR

More lines, now with the values behind:

Binder | binding result
antibody 4785 (antibody, human IgG1, kappa, V domains shown, Chimeric: murine variable regions, human kappa constant region, expressed as full-length IgG) VH: EVQLQQSGPELVMPGASVKISCKASGYSFTSYYVHWVKQRPGQGLEWIGWIYPGSGHTKYNEKFKDKATLTADTSSSTAYMQLSSLTSEDSAVYYCARPPYYSNYADVWGTGTTVTVSS VL: DIVMTQSPSSLTVTAGEKVTMSCKSSQSLLNSGNQKNYLTWYQQKPGQPPKLLIYWASTRESGVPDRFTGSGSGTDFTLTISSVQAEDLAVYYCQSDYSYPYTFGGGTKLEIKR | binds
antibody 5143 (antibody, human IgG1, kappa, V domains shown, Chimeric: murine variable regions, human kappa constant region, expressed as full-length IgG) VH: QVQLQQSGPELVKPGASVKISCKASGYSFTSYYIHWVKQRPGQGLEWIGWIYPGSGHTKYNEKFKGKATLTADTSSSTAYMQLSSLTSEDSAVYYCARPPYYSNYADVWGTGTTVTVSS VL: DIVMTQSPSSLTVTAGEKVTMSCKSSQSLLNSGNQKNYMTWYQQKPGQSPKLLIYWASTRESGVPDRFTGSGSGTDFTLTISSVQAEDLAVYYCQNDYSYPYTFGGGTKLELKR | binds
antibody 5106 (antibody, human IgG1, kappa, V domains shown, Chimeric: murine variable regions, human kappa constant region, expressed as full-length IgG) VH: EVKLVESGGDLVKPGESLKLSCAASGFTFSSFAMSWVRQTPEKRLEWVATISDGGSHLYYPDNVKGRFTISRDNAKNNLYLQMSHLKSEDTAMYYCARGILDYWGQGTSVTVSS VL: DIVMTQATSSLSASLGDRVTISCSASQDINNYLNWYQQKPDGTIKLLIYYTSSLHSGVPSRFSGSGSGTDYSLTISNLEPEDIATYYCQQYSRIPYTFGGGTKLEIKR | binds
antibody 5101 (antibody, human IgG1, kappa, V domains shown, Chimeric: murine variable regions, human kappa constant region, expressed as full-length IgG) VH: EVKLVESGGGLVKPGGSLKLSCAASGFTFSSYGMSWVRQTPEKRLEWVATIRDGGGYTYYSDNVKGRFTISRDNAQNNLYLQMSHLKSEDTAMYYCARGILDYWGQGTSVTVSS VL: QIVLTQSPSSLSASLGDRVTISCRASQDISNYLNWFQQRPDGTVKLLIYYTSRLHSGVPSRFSGSGSGTDYSLTISNLEQEDIATYFCQQGNTLPYTFGGGTKLELKR | binds
antibody 5038 (antibody, human IgG1, kappa, V domains shown, Chimeric: murine variable regions, human kappa constant region, expressed as full-length IgG) VH: EVKLVESGPGLVKPSQSLSLTCSVTGYSITSGFYWTWIRQFPGNKLEWMGFISYDGSNNYNPSLKNRISITRDTSKNQFFLKLNSVTTEDTATYYCARGGGYYGNLFDYWGQGTTLTVSS VL: DIVMTQTTSSLSASLGDRVTISCRPSQDISNYVNWFQQKPGGTVKLLIFHTSRLHSGVPSRFSGSGSGTDYSLTISTLEQEDIAIYFCQQGITLPWTFGGGTKLEIKR | binds
antibody 4935 (antibody, human IgG1, kappa, V domains shown, Chimeric: murine variable regions, human kappa constant region, expressed as full-length IgG) VH: QIQLVQSGPELVKPGASVRISCKASGYTFTSYYIHWVKQRPGQGLEWIGWIYPGNVHTKYTEKFKGKATLTADKSSSTAYMHLSSLTSEDSAVYFCVRRYGYDGDWFAYWGQGTLVTVSS VL: DIQMTQSPASLAVSLGQRATISCRASESVDSYGNTFMHWYQQKPGQPPKLLIYRASNLESGIPARFSGSGSRTDFTLTINPVEADDVATYYCQQSNEDPWTFGGGTKLEIKR | binds
antibody 5144 (antibody, human IgG1, kappa, V domains shown, Chimeric: murine variable regions, human kappa constant region, expressed as full-length IgG) VH: QVQLKESGPGLVAPSQSLSITCTVSGFSLSRYSVHWVRQPPGKGLEWLGMIWGGGSTDYNSALKSRLNINKDNSKSQVFFKMNSLQTDDTAMYYCVRKGITTTGFDYWGQGTTLTVSS VL: HIVLTQSPAIMSASPGEKVTMTCSASSSVSYMYWYQQKPRSSPRLLIYDTSNLASGVPVRFSGSGSGTSYSLTISRMEADDAATYYCQQLSSYPPTFGGGTKLELKR | binds
